Data as given in paper PMC12098889, “Structural insight into PIF6-mediated red light signal transduction of plant phytochrome B” (Cell Discovery, 2025).

T1: phytochrome B (phyB), full length (1‒1172) (Arabidopsis, UniProt P14713 1-1172, PΦB chromophore covalently linked to C357)
T1 construct: Arabidopsis phytochrome B, residues 1-1172, At2g18790; The same protein is Pr in the dark and Pfr after red light; The purification uses Ni-NTA, but no His tag on phyB is described; also called wild-type phyB; phyB-Pr (dark); source: E. coli BL21(DE3), co-expressed with HO1 and HY2, purified (Ni-NTA, anti-FLAG resin, Source Q); not shown: 3× Flag ([residues removed]), N-terminal, kept
T1 sequence (looked up): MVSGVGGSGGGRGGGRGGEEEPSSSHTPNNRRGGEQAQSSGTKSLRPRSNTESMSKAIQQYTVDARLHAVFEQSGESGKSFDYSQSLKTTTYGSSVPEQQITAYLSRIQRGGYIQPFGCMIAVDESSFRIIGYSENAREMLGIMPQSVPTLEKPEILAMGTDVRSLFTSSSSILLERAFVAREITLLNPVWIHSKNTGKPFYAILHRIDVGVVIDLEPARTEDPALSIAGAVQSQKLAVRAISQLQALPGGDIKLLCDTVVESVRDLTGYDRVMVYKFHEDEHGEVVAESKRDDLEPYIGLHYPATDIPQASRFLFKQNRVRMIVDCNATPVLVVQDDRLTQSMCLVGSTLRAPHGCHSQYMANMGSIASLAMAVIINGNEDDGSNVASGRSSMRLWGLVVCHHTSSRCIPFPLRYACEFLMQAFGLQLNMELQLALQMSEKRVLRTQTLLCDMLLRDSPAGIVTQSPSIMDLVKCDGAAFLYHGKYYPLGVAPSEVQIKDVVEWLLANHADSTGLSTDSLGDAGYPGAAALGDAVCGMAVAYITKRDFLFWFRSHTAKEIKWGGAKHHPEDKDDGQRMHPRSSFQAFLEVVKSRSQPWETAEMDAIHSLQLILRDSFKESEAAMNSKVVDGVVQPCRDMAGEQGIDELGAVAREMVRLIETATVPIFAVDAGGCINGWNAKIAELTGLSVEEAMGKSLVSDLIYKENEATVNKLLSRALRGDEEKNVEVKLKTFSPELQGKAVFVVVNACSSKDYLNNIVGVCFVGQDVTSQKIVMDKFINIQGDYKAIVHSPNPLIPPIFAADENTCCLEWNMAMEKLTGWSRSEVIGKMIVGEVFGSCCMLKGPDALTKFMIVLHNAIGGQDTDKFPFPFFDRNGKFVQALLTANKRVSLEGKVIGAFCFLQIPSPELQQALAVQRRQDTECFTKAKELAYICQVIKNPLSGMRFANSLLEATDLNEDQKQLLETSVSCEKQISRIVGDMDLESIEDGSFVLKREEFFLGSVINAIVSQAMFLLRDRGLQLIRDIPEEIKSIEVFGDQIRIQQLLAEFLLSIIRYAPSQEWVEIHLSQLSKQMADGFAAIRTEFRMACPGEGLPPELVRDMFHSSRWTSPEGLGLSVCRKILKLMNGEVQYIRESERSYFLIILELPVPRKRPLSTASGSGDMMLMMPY

T2: phyBN (residues 1‒908 of phyB) (Arabidopsis, UniProt P14713 1-908, PΦB chromophore covalently bound)
T2 construct: Arabidopsis phytochrome B, residues 1-908 (HKRD truncated); also called phyBN-Pfr (red light-irradiated); source: E. coli BL21(DE3), co-expressed with HO1 and HY2, purified; not shown: 3× Flag, N-terminal, kept
T2 sequence (looked up): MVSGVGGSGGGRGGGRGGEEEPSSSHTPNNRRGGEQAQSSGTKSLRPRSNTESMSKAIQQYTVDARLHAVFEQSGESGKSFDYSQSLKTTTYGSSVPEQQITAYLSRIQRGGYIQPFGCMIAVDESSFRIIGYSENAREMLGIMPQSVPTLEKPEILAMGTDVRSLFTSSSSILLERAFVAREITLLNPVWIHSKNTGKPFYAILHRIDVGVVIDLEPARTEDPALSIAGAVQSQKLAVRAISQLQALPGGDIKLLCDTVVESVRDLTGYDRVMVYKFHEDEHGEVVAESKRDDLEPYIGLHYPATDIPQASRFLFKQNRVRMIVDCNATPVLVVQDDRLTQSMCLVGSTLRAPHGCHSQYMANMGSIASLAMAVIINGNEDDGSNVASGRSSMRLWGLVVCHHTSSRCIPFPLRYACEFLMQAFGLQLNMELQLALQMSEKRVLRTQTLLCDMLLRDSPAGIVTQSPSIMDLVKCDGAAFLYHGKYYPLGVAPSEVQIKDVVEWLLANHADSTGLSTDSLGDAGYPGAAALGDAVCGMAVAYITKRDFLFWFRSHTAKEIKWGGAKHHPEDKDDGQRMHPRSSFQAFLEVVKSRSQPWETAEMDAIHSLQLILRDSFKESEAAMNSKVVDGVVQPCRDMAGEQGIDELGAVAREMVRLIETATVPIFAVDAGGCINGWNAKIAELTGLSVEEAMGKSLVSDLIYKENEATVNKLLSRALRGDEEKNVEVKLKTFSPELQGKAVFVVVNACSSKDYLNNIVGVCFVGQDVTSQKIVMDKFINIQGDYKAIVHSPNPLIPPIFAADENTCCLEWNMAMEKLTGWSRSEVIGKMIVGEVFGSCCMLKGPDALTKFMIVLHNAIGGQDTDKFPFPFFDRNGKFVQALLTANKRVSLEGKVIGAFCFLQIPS

T3: phyB^Y276H, full length (Arabidopsis, UniProt P14713 1-1172, Y276H, PΦB chromophore covalently bound)
T3 construct: Arabidopsis phytochrome B, residues 1-1172, At2g18790, with Y276H; also called constitutively active mutant phyB^Y276H; source: E. coli BL21(DE3), co-expressed with HO1 and HY2, purified (Ni-NTA, anti-FLAG resin, Source Q); not shown: 3× Flag ([residues removed]), N-terminal, kept
T3 sequence (looked up): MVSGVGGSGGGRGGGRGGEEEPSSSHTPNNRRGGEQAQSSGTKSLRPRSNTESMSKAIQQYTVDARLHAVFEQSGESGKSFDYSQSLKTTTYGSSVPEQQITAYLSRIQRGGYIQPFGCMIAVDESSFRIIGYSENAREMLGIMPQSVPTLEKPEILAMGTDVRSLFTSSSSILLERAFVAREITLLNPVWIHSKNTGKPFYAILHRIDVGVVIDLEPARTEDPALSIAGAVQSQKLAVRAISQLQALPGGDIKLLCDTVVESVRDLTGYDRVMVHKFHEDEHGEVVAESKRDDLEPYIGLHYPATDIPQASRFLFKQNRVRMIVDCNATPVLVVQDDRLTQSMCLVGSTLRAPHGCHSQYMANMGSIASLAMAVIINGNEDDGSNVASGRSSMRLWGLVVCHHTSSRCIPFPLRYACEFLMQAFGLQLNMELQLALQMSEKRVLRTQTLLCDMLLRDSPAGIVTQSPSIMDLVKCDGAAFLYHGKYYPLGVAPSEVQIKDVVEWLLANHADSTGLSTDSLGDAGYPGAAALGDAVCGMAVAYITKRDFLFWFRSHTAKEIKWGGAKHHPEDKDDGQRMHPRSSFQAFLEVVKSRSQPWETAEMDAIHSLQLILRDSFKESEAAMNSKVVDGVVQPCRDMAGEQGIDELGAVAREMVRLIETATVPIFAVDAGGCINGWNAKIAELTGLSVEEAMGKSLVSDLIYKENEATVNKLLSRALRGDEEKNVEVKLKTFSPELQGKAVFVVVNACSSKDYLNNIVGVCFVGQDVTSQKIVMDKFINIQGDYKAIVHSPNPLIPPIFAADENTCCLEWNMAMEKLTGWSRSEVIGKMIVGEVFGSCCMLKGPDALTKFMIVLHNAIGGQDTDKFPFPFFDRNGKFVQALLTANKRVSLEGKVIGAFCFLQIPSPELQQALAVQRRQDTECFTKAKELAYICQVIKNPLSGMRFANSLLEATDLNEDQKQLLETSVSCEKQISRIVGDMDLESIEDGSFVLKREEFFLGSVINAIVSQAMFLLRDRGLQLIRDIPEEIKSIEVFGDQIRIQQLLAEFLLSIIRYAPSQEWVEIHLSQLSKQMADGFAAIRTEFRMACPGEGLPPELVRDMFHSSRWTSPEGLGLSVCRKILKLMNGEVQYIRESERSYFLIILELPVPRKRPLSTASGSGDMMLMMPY


What was measured:
Details in all cases: both partners purified
[1] = target: T1, phytochrome B (phyB), full length …; assay: SEC; Superose 6 Increase 10/300 GL; 25 mM Tris-HCl pH 8.0, 150 mM NaCl, 5 mM DTT; red light-irradiated phyB; peak fractions on SDS-PAGE
[2] = target: T2, phyBN (residues 1‒908 of phyB); assay: pull-down; StrepII-tagged PIF6N (1-64) and its mutants used to pull down Flag-tagged phyBN (Pfr) and its site-directed mutants; SDS-PAGE with Coomassie and zinc-induced fluorescence
phyB^Y276H, full length = target: T3, phyB^Y276H, full length; assay: pull-down; StrepII-tagged PIF6 forms or PIFNs held on Strep-Tactin Sepharose, 3× Flag-phyB or phyB^Y276H in the mixture; in the dark, 4 °C, 2 h; buffer E (100 mM Tris-HCl pH 8.0, 150 mM NaCl, 1 mM EDTA); SDS-PAGE with Coomassie and zinc-induced fluorescence
[3] = target: T1, phytochrome B (phyB), full length …; assay: pull-down; StrepII-tagged PIF6 forms or PIFNs held on Strep-Tactin Sepharose, 3× Flag-phyB in the mixture; red light (665 nm, 800 μmol m^-2 s^-1), 4 °C, 2 h; buffer E (100 mM Tris-HCl pH 8.0, 150 mM NaCl, 1 mM EDTA); eluted with D-desthiobiotin; SDS-PAGE with Coomassie and zinc-induced fluorescence

binding result [1]	binding result [2]	binding result (phyB^Y276H, full length)	binding result [3]	Binder
binds	binds	–	–	PIF6N (1‒64) (domain or fragment, Arabidopsis, UniProt Q8L5W7 1-64, looked up, Arabidopsis PIF6, residues 1-64 (methods of the pull-down); the legends call PIF6N residues 1-60 and the results R11-S60; Probably in the modified pET15b vector (N-terminal His6, C-terminal StrepII) like the other PIFNs; also called N-terminus of PIF6β; source: E. coli BL21(DE3), purified) MMFLPTDYCCRLSDQEYMELVFENGQILAKGQRSNVSLHNQRTKSIMDLYEAEYNEDFMKSIIH
–	–	binds	binds	PIF6αΔC (1‒247) (domain or fragment, Arabidopsis, UniProt Q8L5W7 1-247, looked up, Arabidopsis PIF6α, residues 1-247; also called PIF6ΔC; C-terminus-truncated PIF6α; source: E. coli BL21(DE3), purified (Ni-NTA, Strep-Tactin, Source Q); not shown: StrepII, C-terminal, kept) MMFLPTDYCCRLSDQEYMELVFENGQILAKGQRSNVSLHNQRTKSIMDLYEAEYNEDFMKSIIHGGGGAITNLGDTQVVPQSHVAAAHETNMLESNKHVDDSETLKASSSKRMMVDYHNRKKIKFIPPDEQSVVADRSFKLGFDTSSVGFTEDSEGSMYLSSSLDDESDDARPQVPARTRKALVKRKRNAEAYNSPERNQRNDINKKMRTLQNLLPNSHKDDNESMLDEAINYMTNLQLQVQMMTMG
